According to US20160046672A1, “STAPLING eIF4E INTERACTING PEPTIDES” (AGENCY FOR SCIENCE, TECHNOLOGY AND RESEARCH, priority 2013, published 2016):
Positions of bridges follow the written chain, without caps; N, C: chain ends. Non-standard residues stand in square brackets, D forms with d. Residues, ends and D or L forms follow the SMILES beside them. S5 = C=CCCC[C@](C)(N)C(=O)O; Abu = CC[C@H](N)C(=O)O; Aib = CC(C)(N)C(=O)O

Assays:
circular dichroism = details: 5 mM sodium phosphate; pH 7.0; ns °C; 0.5 or 2 mg/mL
eIF4E = target: T1, eIF4E (Homo sapiens, UniProt P06730); assay: eIF4E affinity (SPR/FP, method not named); format: binding
T1 construct: made in house
Protocol: (§1) Apparent Kd values were determined for a variety of molecules via competitive anisotropy anisotropy experiments. Titrations were carried out with the concentrations eIF4E held constant at 200 nM, respectively and the labeled peptide at 50 nM. The competing molecules were then titrated against complex of the FAM labeled peptide and protein. Apparent Kd values were determined by fitting the experimental data to the equations shown below: […]
(§2) Six buffer blanks were first injected to equilibrate the instrument fully and then a solvent correction curve was performed followed by a further two blank injections. […] Using a flow rate of 50 μl/min, compounds were injected for 60 s and dissociation was monitored for 180 s. The data collection rate was 10 Hz. Kds were determined using the BiaEvaluation software (Biacore) and calculated kinetically from the dissociation and association phase data for each of the peptides. The kinetic data were fitted to 1:1 binding models. Each individual peptide Kd was determined from three separate titrations. Within each titration at least two concentration points were duplicated to ensure stability and robustness of the chip surface.

[1] = Circular dichroism, percent α-helicity in solution; format: physicochemical; details: CD, 5 mM sodium phosphate buffer pH 7.0
Protocol: CD was measured on a JASCO J-810 spectropolarimeter, and spectra were either recorded with a quartz cuvette (Helmer) with a pathlength of 0.01 cm or 0.1 cm in 5 mM sodium phosphate buffer (pH 7.0). FUV CD spectra were recorded from 260 nm to 200 nm at a peptide concentration of either 2 mg/ml or 0.5 mg/ml, respectively. The CD signal was converted into mean residue ellipticity in units of degree·cm^2·dmol^−1·residue^−1. CD spectra were recorded at a data pitch of 0.2 nm at 50 nm min^−1, a response time of 2 s, and a bandwidth of […]. Once converted to mean residue ellipticity, percent α-helicity can be calculated with equation (1) and (2): […]

[2] = target: T2, human eukaryotic translation initiation factor 4E (eIF4E), full-length (human, UniProt P06730 2-217); assay: SPR, Biacore T100, eIF4E immobilised on CM5, peptide as analyte, kinetic 1:1 fit
T2 construct: mature; For SPR it was amine-coupled to a CM5 chip with m7GTP present in a 2:1 ratio. 'mature' is used here for full length; also called full length eIF4E
Protocol: For stock peptide solutions, the compounds were dissolved in 100% DMSO to a concentration of 10 mM; further dilutions of the peptide stock solutions into DMSO and/or running buffer were performed immediately prior to analysis. Running buffer consisted of 10 mM Hepes pH 7.6, 0.15M NaCl, 1 mM DTT and 0.1% Tween20. Stock/DMSO diluted peptide solutions were diluted into 1.03× running buffer to make a peptide solution with 3% DMSO final concentration. […] Surface Plasmon resonance experiments were performed on a Biacore T100 machine.
eIF4E was immobilized on a CM5 sensor chip. The CM5 chip was conditioned with a 6 s injection of 100 mM HCL, followed by a 6 s injection of 0.1% SDS and completed with a 6 s injection of 50 mM NaOH at a flow rate of 100 μl/min. […] Purified eIF4E was diluted with 10 mM sodium acetate buffer (pH 5.0) to a final concentration of 0.5 μM with m⁷ GTP present in a 2:1 ratio in order to stabilize eIF4E. The amount of eIF4E immobilized on the activated surface was controlled by altering the contact time of the protein solution and was approximately 1000 RU. After the immobilization of the protein, a 7-min injection (at 10 μl min⁻¹) of 1 M ethanolamine (pH 8.5) was used to quench excess active succinimide ester groups.
as §2, with “titrations.” for “titrations. Within each titration at least two concentration points were duplicated to ensure stability and robustness of the chip surface.”

[3] = target: T2, human eukaryotic translation initiation …; assay: competitive fluorescence anisotropy (FP), displacement of FAM tracer from eIF4E, apparent Kd
Protocol: as §1, with “The competing molecules were then titrated against complex of the FAM labeled peptide and protein.” left out

T1 sequence (P06730 whole entry): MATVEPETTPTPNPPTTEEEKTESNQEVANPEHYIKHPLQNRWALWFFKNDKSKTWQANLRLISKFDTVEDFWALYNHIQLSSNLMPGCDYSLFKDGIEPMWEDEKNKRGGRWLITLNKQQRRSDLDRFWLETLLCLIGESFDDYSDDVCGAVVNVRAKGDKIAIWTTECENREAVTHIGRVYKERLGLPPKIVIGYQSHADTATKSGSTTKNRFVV
T2 sequence (P06730 2-217): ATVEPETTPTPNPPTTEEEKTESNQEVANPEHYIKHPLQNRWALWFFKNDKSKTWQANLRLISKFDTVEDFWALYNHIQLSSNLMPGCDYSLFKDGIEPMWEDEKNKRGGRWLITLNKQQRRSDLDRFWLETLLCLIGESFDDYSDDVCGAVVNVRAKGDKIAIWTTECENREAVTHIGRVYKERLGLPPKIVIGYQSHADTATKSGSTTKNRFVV

| Molecule | helicity (circular dichroism) [%] | Helicity (%) [1] [%] | other results |
| --- | --- | --- | --- |
| CC(=O)N[C@@H](CCCCN)C(=O)N[C@@H](CCCCN)C(=O)N[C@@H](CCCNC(=N)N)C(=O)N[C@@H](Cc1ccc(O)cc1)C(=O)N[C@@H](CO)C(=O)N[C@@H](CCCNC(=N)N)C(=O)NC(C)(C)C(=O)N[C@@H](Cc1ccccc1)C(=O)N[C@@H](CC(C)C)C(=O)N[C@@H](CC(C)C)C(=O)NC(C)(C)C(N)=O (Ac-KKRYSR[Aib]FLL[Aib]-NH2) | 7 |  |  |
| CC(=O)N[C@@H](CCCCN)C(=O)N[C@@H](CCCCN)C(=O)N[C@@H](CCCNC(=N)N)C(=O)N[C@@H](Cc1ccc(O)cc1)C(=O)N[C@@H](CO)C(=O)N[C@@H](CCCNC(=N)N)C(=O)NC(C)(C)C(=O)N[C@@H](Cc1ccccc1)C(=O)N[C@@H](CC(C)C)C(=O)N[C@@H](CC(C)C)C(=O)NC(C)(C)C(=O)N[C@@H](Cc1ccccc1)C(N)=O (Ac-KKRYSR[Aib]FLL[Aib]F-NH2) | 2 |  |  |
| CC(=O)N[C@@H](CCCCN)C(=O)N[C@@H](CCCCN)C(=O)N[C@@H](CCCNC(=N)N)C(=O)N[C@@H](Cc1ccc(O)cc1)C(=O)N[C@@H](CO)C(=O)N[C@@H](CCCNC(=N)N)C(=O)N[C@@]1(C)CCCC=CCCC[C@@](C)(C(N)=O)NC(=O)[C@H](CC(C)C)NC(=O)[C@H](CC(C)C)NC(=O)[C@H](Cc2ccccc2)NC1=O (Ac-KKRYSR[S5]FLL[S5]-NH2; staple 7-11) | 72 |  |  |
| CC(=O)N[C@@H](CCCCN)C(=O)N[C@@H](CCCCN)C(=O)N[C@@H](CCCNC(=N)N)C(=O)N[C@@H](Cc1ccc(O)cc1)C(=O)N[C@@H](CO)C(=O)N[C@@H](CCCNC(=N)N)C(=O)N[C@@]1(C)CCCC=CCCC[C@@](C)(C(=O)N[C@@H](Cc2ccccc2)C(N)=O)NC(=O)[C@H](CC(C)C)NC(=O)[C@H](CC(C)C)NC(=O)[C@H](Cc2ccccc2)NC1=O (Ac-KKRYSR[S5]FLL[S5]F-NH2; staple 7-11) | 24 |  |  |
| CC(=O)N[C@@H](CCCCN)C(=O)N[C@@H](CCCCN)C(=O)N[C@@H](CCCNC(=N)N)C(=O)N[C@@H](Cc1ccc(O)cc1)C(=O)N[C@@H](CO)C(=O)N[C@@H](CCCNC(=N)N)C(=O)N[C@@]1(C)CCCC=CCCC[C@@](C)(C(=O)N[C@@H](Cc2ccccc2)C(N)=O)NC(=O)[C@H](CC(C)C)NC(=O)[C@H](CC(C)C)NC(=O)[C@H](C)NC1=O (relative stereo) [sTIP-01^F8A, KKRYSR*ALL*F] | 80 |  | affinity / binding to eIF4E (in words) (eIF4E): improved Kd values as compared to sTIP-01 |
| CC[C@H](NC(=O)[C@]1(C)CCCC=CCCC[C@](C)(NC(=O)[C@H](CCCNC(=N)N)NC(=O)[C@H](CO)NC(=O)[C@H](Cc2ccc(O)cc2)NC(=O)[C@H](CCCNC(=N)N)NC(=O)[C@H](CCCCN)NC(=O)[C@H](CCCCN)NC(C)=O)C(=O)N[C@@H](Cc2ccccc2)C(=O)N[C@@H](CC(C)C)C(=O)N[C@@H](CC(C)C)C(=O)N1)C(N)=O (relative stereo) [sTIP-01^F12&, KKRYSR*FLL*&] | 44 | 44 | affinity / binding to eIF4E (in words) (eIF4E): improved Kd values as compared to sTIP-01 |
| CC(=O)N[C@@H](CCCCN)C(=O)N[C@@H](CCCCN)C(=O)N[C@@H](CCCNC(=N)N)C(=O)N[C@@H](Cc1ccc(O)cc1)C(=O)N[C@@H](CO)C(=O)N[C@@H](CCCNC(=N)N)C(=O)N[C@@]1(C)CCCC=CCCC[C@@](C)(C(=O)N[C@@H](CC(C)C)C(N)=O)NC(=O)[C@H](CC(C)C)NC(=O)[C@H](CC(C)C)NC(=O)[C@H](CCC(N)=O)NC1=O (relative stereo) [sTIP-04, KKRYSR*QLL*L] |  | 63 |  |
| CC(=O)N[C@@H](CCCCN)C(=O)N[C@@H](CCCCN)C(=O)N[C@@H](CCCNC(=N)N)C(=O)N[C@@H](Cc1ccc(O)cc1)C(=O)N[C@@H](CO)C(=O)N[C@@H](CCCNC(=N)N)C(=O)NC(C)(C)C(=O)N[C@@H](C)C(=O)N[C@@H](CC(C)C)C(=O)N[C@@H](CC(C)C)C(=O)NC(C)(C)C(=O)N[C@@H](Cc1ccccc1)C(N)=O [TIP-01^F8A, KKRYSRXALLXF] (Ac-KKRYSR[Aib]ALL[Aib]F-NH2) | 10 | 10 |  |
| CC[C@H](NC(=O)C(C)(C)NC(=O)[C@H](CC(C)C)NC(=O)[C@H](CC(C)C)NC(=O)[C@H](Cc1ccccc1)NC(=O)C(C)(C)NC(=O)[C@H](CCCNC(=N)N)NC(=O)[C@H](CO)NC(=O)[C@H](Cc1ccc(O)cc1)NC(=O)[C@H](CCCNC(=N)N)NC(=O)[C@H](CCCCN)NC(=O)[C@H](CCCCN)NC(C)=O)C(N)=O [TIP-01^F12&, KKRYSRXFLLX&] (Ac-KKRYSR[Aib]FLL[Aib][Abu]-NH2) | 11 | 11 |  |
| CC(=O)N[C@@H](CCCCN)C(=O)N[C@@H](CCCCN)C(=O)N[C@@H](CCCNC(=N)N)C(=O)N[C@@H](Cc1ccc(O)cc1)C(=O)N[C@@H](CO)C(=O)N[C@@H](CCCNC(=N)N)C(=O)NC(C)(C)C(=O)N[C@@H](CCC(N)=O)C(=O)N[C@@H](CC(C)C)C(=O)N[C@@H](CC(C)C)C(=O)NC(C)(C)C(=O)N[C@@H](CC(C)C)C(N)=O [TIP-04, KKRYSRXQLLXL] | 4 | 4 |  |
| CC(=O)N[C@@H](CCCCN)C(=O)N[C@@H](CCCCN)C(=O)N[C@@H](CCCNC(=N)N)C(=O)N[C@@H](Cc1ccc(O)cc1)C(=O)N[C@@H](CO)C(=O)N[C@@H](CCCNC(=N)N)C(=O)N[C@@H](CCC(=O)O)C(=O)N[C@@]1(C)CCCC=CCCC[C@@](C)(C(N)=O)NC(=O)CNC(=O)[C@H](CC(C)C)NC(=O)[C@H](CC(C)C)NC1=O [sTIP-02, KKRYSRE*LLG*] | 18 |  | Kd (in words) (eIF4E): nanomolar range; affinity / binding to eIF4E (in words) (eIF4E): no improvement in binding over eIF4G^D5S |
| Ac-KKRYSREFLLGF-NH2 [eIF4G^D5S, reference compound] | 0 | 0 |  |
| Ac-KKRYSR[Aib]ALL[Aib]F-NH2 (SMILES CC(=O)N[C@@H](CCCCN)C(=O)N[C@@H](CCCCN)C(=O)N[C@@H](CCCNC(=N)N)C(=O)N[C@@H](Cc1ccc(O)cc1)C(=O)N[C@@H](CO)C(=O)N[C@@H](CCCNC(=N)N)C(=O)NC(C)(C)C(=O)N[C@@H](C)C(=O)N[C@@H](CC(C)C)C(=O)N[C@@H](CC(C)C)C(=O)NC(C)(C)C(=O)N[C@@H](Cc1ccccc1)C(N)=O, Printed KKRYSRXALLXF, X = AIB) [TIP-01^F8A] |  |  | Kd [2]: 117 nM; Kd [3]: 156 nM |
| Ac-KKRYSR[Aib]FLL[Aib][Abu]-NH2 (SMILES CC[C@H](NC(=O)C(C)(C)NC(=O)[C@H](CC(C)C)NC(=O)[C@H](CC(C)C)NC(=O)[C@H](Cc1ccccc1)NC(=O)C(C)(C)NC(=O)[C@H](CCCNC(=N)N)NC(=O)[C@H](CO)NC(=O)[C@H](Cc1ccc(O)cc1)NC(=O)[C@H](CCCNC(=N)N)NC(=O)[C@H](CCCCN)NC(=O)[C@H](CCCCN)NC(C)=O)C(N)=O, Printed KKRYSRXFLLX&) [TIP-01^F12&] |  |  | Kd [2]: 111 nM; Kd [3]: 133 nM |
| Ac-KKRYSREFLLGF-NH2 (also called eIF4G1^D5S; linear template peptide) [eIF4G^D5S] |  |  | Kd [2]: 99.9 nM; Kd [3]: 195 nM |
| Ac-KKRYSR[Aib]QLL[Aib]L-NH2 (Printed KKRYSRXQLLXL, X = AIB; also called AIB derivative of sTIP-04) [TIP-04] |  |  | Kd [2]: 22 nM; Kd [3]: 60 nM |
